This is an account of results in patent publication US20260201039A1.

This test concerns the target human CD28 in its native form displayed on the cell surface (human) (UniProt P10747). In words: cell-based or functional assay.

TGN1412 (IgG4) (antibody) had an IL2 secretion, PBMC of 20 donors on plate-coated protein, 72 h of less than 80000 pg/mL.
